From patent publication US20180087080A1
pKd: −log10 of the molar value.

What was measured:
FcγRIIIa receptor [1] = target: FcγRIIIa receptor (UniProt P08637); assay: SPR (Biacore), FcγRIIIa immobilised; sample with 9.6 % afucosylation
FcγRIIIa receptor [2] = target: FcγRIIIa receptor (UniProt P08637); assay: SPR (Biacore), FcγRIIIa immobilised; sample with 5.1 % afucosylation
FcγRIIIa receptor [3] = target: FcγRIIIa receptor (UniProt P08637); assay: SPR (Biacore), FcγRIIIa immobilised, run 1
FcγRIIIa receptor [4] = target: FcγRIIIa receptor (UniProt P08637); assay: SPR (Biacore), FcγRIIIa immobilised, run 2

UniProt P08637, sequence (P08637 17-208 limits assumed): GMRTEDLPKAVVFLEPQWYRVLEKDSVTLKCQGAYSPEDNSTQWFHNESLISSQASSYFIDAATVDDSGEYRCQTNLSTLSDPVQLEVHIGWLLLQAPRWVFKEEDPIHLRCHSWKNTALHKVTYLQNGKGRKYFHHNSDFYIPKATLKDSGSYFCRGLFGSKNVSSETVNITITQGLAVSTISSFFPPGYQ

pKd (FcγRIIIa receptor [1]) | pKd (FcγRIIIa receptor [2]) | pKd (FcγRIIIa receptor [3]) | pKd (FcγRIIIa receptor [4]) | Substance
6.51 | 6.48 | – | – | Itolizumab produced from Chinese Hamster Ovary (CHO) cell line (Bmab-600) (antibody)
– | – | 6.43 | 6.29 | Itolizumab produced from mouse derived NS0 cell line (T1h) (antibody)
